The values that follow come from publication PMC10960667 (Molecular cell, 2024).

The experiment concerns the target T1, recombinant full-length IκBζ wild type with 8×His-MBP tag (human, UniProt Q9BYH8-1 1-718).
T1 sequence (looked up): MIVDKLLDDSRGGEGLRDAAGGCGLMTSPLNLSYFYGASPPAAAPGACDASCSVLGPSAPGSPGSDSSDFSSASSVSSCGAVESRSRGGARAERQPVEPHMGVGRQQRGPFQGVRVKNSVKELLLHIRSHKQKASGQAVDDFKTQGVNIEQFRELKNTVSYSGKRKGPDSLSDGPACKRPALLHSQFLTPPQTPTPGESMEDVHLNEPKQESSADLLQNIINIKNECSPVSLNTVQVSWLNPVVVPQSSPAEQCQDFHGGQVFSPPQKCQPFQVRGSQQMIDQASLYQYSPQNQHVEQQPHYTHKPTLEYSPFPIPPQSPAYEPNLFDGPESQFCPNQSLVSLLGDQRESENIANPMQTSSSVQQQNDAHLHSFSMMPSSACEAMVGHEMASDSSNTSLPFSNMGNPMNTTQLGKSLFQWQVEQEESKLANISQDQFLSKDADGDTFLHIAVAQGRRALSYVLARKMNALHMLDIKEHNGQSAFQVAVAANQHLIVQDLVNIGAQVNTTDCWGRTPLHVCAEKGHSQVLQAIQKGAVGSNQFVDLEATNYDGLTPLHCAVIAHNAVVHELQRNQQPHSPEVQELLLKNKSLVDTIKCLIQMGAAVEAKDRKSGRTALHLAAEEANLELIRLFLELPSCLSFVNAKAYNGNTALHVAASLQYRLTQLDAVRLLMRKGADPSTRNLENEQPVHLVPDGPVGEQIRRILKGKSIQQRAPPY
Put plainly: pull-down.

B1: recombinant full-length OCT6 with N-terminal 6×His-ECFP tag (natural protein, UniProt Q03052 1-451, looked up)
chain: MATTAQYLPRGPGGGAGGTGPLMHPDAAAAAAAAAAAERLHAGAAYREVQKLMHHEWLGAGAGHPVGLAHPQWLPTGGGGGGDWAGGPHLEHGKAGGGGTGRADDGGGGGGFHARLVHQGAAHAGAAWAQGSTAHHLGPAMSPSPGASGGHQPQPLGLYAQAAYPGGGGGGLAGMLAAGGGGAGPGLHHALHEDGHEAQLEPSPPPHLGAHGHAHGHAHAGGLHAAAAHLHPGAGGGGSSVGEHSDEDAPSSDDLEQFAKQFKQRRIKLGFTQADVGLALGTLYGNVFSQTTICRFEALQLSFKNMCKLKPLLNKWLEETDSSSGSPTNLDKIAAQGRKRKKRTSIEVGVKGALESHFLKCPKPSAHEITGLADSLQLEKEVVRVWFCNRRQKEKRMTPAAGAGHPPMDDVYAPGELGPGGGGASPPSAPPPPPPAALHHHHHHTLPGSVQ
As for B1, the binding result was “binds”.
